From article doi:10.1101/2024.04.26.590571 (bioRxiv, 2024)

Target: the molecule itself
Test: cryo-EM structure

B1: L-protein (BchL homodimer), electron donor component of Rhodobacter sphaeroides DPOR (enzyme)
chain: MSPKDLTIPTGADGEGSVQVHLDEADKITGAKVFAVYGKGGIGKSTTSSNLSAAFSILGKRVLQIGCDPKHDSTFTLTGSLVPTVIDVLKDVDFHPEELRPEDFVFEGFNGVMCVEAGGPPAGTGCGGYVVGQTVKLLKQHHLLDDTDVVIFDVLGDVVCGGFAAPLQHADQAVVVTANDFDSIYAMNRIIAAVQAKSKNYKVRLAGCVANRSRATDEVDRFCKETNFRRLAHMPDLDAIRRSRLKKKTLFEMDEDQDVLAARAEYIRLAESLWRGLDPIDPHSLPDRDIFELLGFD
  stoichiometry N: 2
